In the domain aggregation screens of Martell et al. (2025):

Experiment: soluble fraction after stress (log2 fold change); higher = more stays soluble; pooled small domains, quantitative proteomics
Settings: stress: 75 degC
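Also: 20 min heating vs room temperature control held 20 min.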

First: HMVGDLPPQELRVFELIGDGLSNREIADEMILAEKTIKNYVTSLLQKLGMQRRTEAAAFAARLDER
Second: HMVGDMLTQKDSEGLTAYLYQQGIISQREMLLLNGILKDRVLTGMEKGQRDSVRASMVQHLLAMLNMM
The “soluble fraction (log2)” value of the first is higher: -0.0289 for the first, -1.94 for the second.

First: HMVGEQISYIPLKFATASEVVKSLTSMFQQQKGIAPIRIVAEERTNAILLLASEADTARVKNLIAMMDKGV
Second: HMVGGIAIGQFNVPRGSVKVTAGGRLLQEGLDYTVNYQAGRVQILDESLKNSNVPIEISTESNS
The “soluble fraction (log2)” value of the first is lower: -2.15 for the first, 0.106 for the second.

Compared with “HMVGMDRYFKIKNIKDSSAAFERDYILHFLKENDWMVSKTAQMIGLERTTLYKKIKQLGLASMLEN”, “HMVGQIISNARKQEKMTQSELAEKVGTNKTYISRIEKGVIEPGVGLFFRIIDALGLKIEIVKP” is higher in “soluble fraction (log2)” value: -3.24 for the first, -2.07 for the second.

First: HMVHSEDLQDHKYVSQLGEVFLKENPNYENIKKSWGDHMVVIKKFGRYPHRNKILNRKSTPEELEFLKG
Second: HMVILPGEKMVVKIVQPGKEKGQGVGYLADGTMIVVDSGDKMIGQDVPTEITRVFQTVAGKMLFAVPVD
The “soluble fraction (log2)” value of the first is higher: -0.0435 for the first, -0.73 for the second.

Compared with “HMVIMDLIVNGEPKYVVGEQLHLILDELGYSGKHFVVELNGEILSKEAYTTTKLTAADRLEIVSFVGG”, “HMVITATYTDFMDALEADEVKQVQFSSTEINYTIEKGGHVQYFKTGVVDNPQLPQILREKGVTYAAEIP” is higher in “soluble fraction (log2)” value: -3.23 for the first, -0.512 for the second.

Compared with “HMVITDPFFLEPENLVKDAVALMEKYRISGVPITKKGKLVGILTNRDLRFESNYEQPIANVMS”, “HMVITISEADVSGTYTKSITQGDWKYIRTWTPFEDERLYDLAKDPMELRDLAPAAPSKLAELRELLSALVS” is lower in “soluble fraction (log2)” value: 0.137 for the first, -1.4 for the second.

Going from “HMVIVMRKDADAASIEKVVSEVKSRGFMPHVSEGESRTLIGAIGPAPTEELREHFAGLAGVETVVRITK” to “HMVKDIEFSLPLEQDYYKVLISVKDSQGKRQVYEELHRAGDTVYAAVRYYGSGELEIHLNGKFYKTIK”, the “soluble fraction (log2)” value falls from -0.533 to -0.868.

“HMVKDLEIETIRLNNLLASDAEEVLKSLGGAKPTYKAVAVPGSNSLVIEGTKADLIKLKSIINALEDGS” and “HMVKETNYSFFLKQIDAGTVEQVQIEDTEIKFKVSTADGKEQVYSTVRVEDPDLVDRLYSKGNIDFTGN” are within 0.2 log units of each other in “soluble fraction (log2)” value: 0.00865 for the first, -0.0797 for the second.

Going from “HMVKIIHYEVYANRGDGWKLVDQFSADQRQEAVNLAKEIETEDQVAVKIIREIFDVQDNTYQESVEYIG” to “HMVKLDDLTGQDKATAEATITNSGLKYSEQQEFSDEVEAGKVIRTDPGAGTSSLKAGDTVTVYVSRGPEN”, the “soluble fraction (log2)” value rises from -1.59 to 0.215.

Compared with “HMVKNYYEILEVDKKASPEVIEKAYKTLAKKYHPDLQEAENNGQYEEKMKEINEAYSVLSDEFKRRTYDEQ”, “HMVKSYEVPDVSNLTVLEAEAKLQEMGFEIDEEQKEISSSDIESGRVVKTSPQAGSKRKEGAIITLYVSSG” is higher in “soluble fraction (log2)” value: 0.123 for the first, 0.65 for the second.

Compared with “HMVKTANVAYSEFLKLVESDNISDVSIVGRTITGHLDDGTKFSTYTPPNDPSLIDKLTRKNVIIKSAPE”, “HMVKVEVKPNVLQWVIKRMDNFDRLKDQFPNIDKWINQESQPTLKQLEKLAKMTAVPLGYFFLPNPPEEK” is lower in “soluble fraction (log2)” value: 0.0585 for the first, -1.12 for the second.

First: HMVLELRIGQIVRGVLLQLVGEREGIVSVGGVPVRARLEAEIPLGRGVMLQVQPGSDANNILLKPV
Second: HMVLENLKKFIDSKGISVSAFEKSIGMSNNSFRKSLNSGGHIGSDKLENILKIYPELNPVWLLQGEGEML
The “soluble fraction (log2)” value of the first is lower: -3.01 for the first, -0.589 for the second.

First: HMVLGSSVAMGQKIGDSDLTWVEVPLSSAFDRFLSEPEWRGSSDLVAARLLEAGVFLTEDDVVE
Second: HMVLLGAAIRELRIQKGITIEELAEMSGLSTGLISKIERDLGNPSISSLRKISRALGVPTAFFFA
The “soluble fraction (log2)” value of the first is higher: 0.0533 for the first, -3.28 for the second.

Going from “HMVLSKGAKELLDFIMREGEVTTSKVVQKFGGSAQNASAKLKKLYATGLILGSKAVAESGGLEFVYKA” to “HMVLSVRERMGIVLEKVNTETFTDFKELFTVEEGRAGAIVSLLAILQLMKDSLIQLVQNEPNGPIYVKAA”, the “soluble fraction (log2)” value falls from 0.256 to -0.879.

Going from “HMVLTSFHDNFPKTGTTYTVRSGDTISGIATKFGSTRDWIQNANEISHPKYLQVGRTLFIPH” to “HMVMATPHNTAKAGDIAKTVIMPGDPLRAKYIADNYLDNAVQFNVVRNIYGYTGVYRGTDISVMASGM”, the “soluble fraction (log2)” value rises from -0.302 to 0.212.

First: HMVMETLAERINTALQTKGLSVNALARRVGVSYPAMRKITKGETLNPKFLFEIAEALGVSVEWLKTGEGSP
Second: HMVMNKQEFLKILRDTLQSQLSSRETENHVEYYRTYIEEQMREGKTEIEILDVLGDPRLIARTILET
The “soluble fraction (log2)” value of the first is lower: -1.34 for the first, -0.193 for the second.

Going from “HMVMSTDAELILEYLAKHQGEMEITDKSSPELIMDTFNMSKGAFKRALGSLYKSKTVVIESTKVLLNT” to “HMVNDQSIYASEGYVHIRSGKPVSLRIYTILGALYRHEERLVGDHVIALPRGLYIVVLNHTAKKIMV”, the “soluble fraction (log2)” value rises from -1.44 to -0.657.

“HMVNEALDEFFVGLKNLYESATGKPAIAGAHFDGEPKTDFEKLMYLGYQIIRPAQAYPSALKAYERAIARS” and “HMVNHEERKRLIAEATWRTISHVGIEQASVRTIAKEAGLSLGALRYYFTTQEELLRFSMQLVQERV” are within 0.2 log units of each other in “soluble fraction (log2)” value: -0.145 for the first, -0.0767 for the second.

Going from “HMVNIEAEVGRRLRQLRARRGLSLRALADLSGLNVNTLSLIENSKTSPSVSTLQQLARSLQVPITTFFESD” to “HMVNKQERTYTILRDRIHSGSFAPLERLNIDALARELGVSPIPVREALRRLEAEGWVRFTPNVGAVVSP”, the “soluble fraction (log2)” value rises from -1.36 to -0.509.
